According to patent US9580469B2, “Peptides for the treatment and early diagnosis of Alzheimer's disease and other tauopathies” (priority 2012, dated 2017):
Where no end group is shown, it is not given here. [ ]: non-standard residue; d: D form.

Key:
Format in all cases: biochemical
tau fibrils = tau fibrils (Homo sapiens, UniProt P10636); assay: Effect of peptides on existing tau fibrils
tau full-length protein = target: T1, tau full-length protein (Homo sapiens, UniProt P10636); assay: Dynamic light scattering (DLS) measurements of tau aggregation with arachidonic acid; conditions: for Mass Day 1 / Particle size Day 1 / Mass Day 8 / Particle size Day 8: DLS, 1 μg/ml tau full-length protein, 100 μM arachidonic acid (AA), peptide at ratio 1:10; for Effect on aggregation of tau in DLS (in words): tau full-length protein, 100 μM arachidonic acid, peptide ratio 1:10
T1 construct: Since this is not possible for the full-length tau protein (441 amino acids)
T1 sequence (P10636 1-441 isoform P10636-8): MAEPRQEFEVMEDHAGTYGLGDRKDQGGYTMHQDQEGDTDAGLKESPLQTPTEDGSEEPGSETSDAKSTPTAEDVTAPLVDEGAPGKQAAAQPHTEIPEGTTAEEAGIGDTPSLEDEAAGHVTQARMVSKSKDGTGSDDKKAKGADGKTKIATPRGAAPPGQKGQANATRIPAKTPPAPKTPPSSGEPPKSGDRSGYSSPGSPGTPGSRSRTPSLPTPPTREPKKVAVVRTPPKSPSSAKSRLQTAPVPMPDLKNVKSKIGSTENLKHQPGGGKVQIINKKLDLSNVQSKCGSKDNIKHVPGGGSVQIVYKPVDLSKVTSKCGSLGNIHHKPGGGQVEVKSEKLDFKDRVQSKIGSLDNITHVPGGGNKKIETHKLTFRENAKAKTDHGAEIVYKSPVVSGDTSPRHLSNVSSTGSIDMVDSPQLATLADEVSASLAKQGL
Description: For this purpose. 1 μg/ml tau full-length protein was analyzed using 100 μM arachidonic acid and the respective peptide at a ratio of 1:10. Tau without peptide and without the addition of arachidonic acid was measured for control purposes. […] DLS was carried out with an acquisition time of 5 seconds for 3 minutes at room temperature.

full-length tau protein = full-length tau protein (Homo sapiens, UniProt P10636); assay: ThT aggregation assay of tau with 100 μM arachidonic acid (relative fibril content); conditions: 5 μM tau, tau:peptide 1:1 and 1:10, 24 hours
Sequence of full-length tau protein (P10636 1-441 isoform P10636-8): as above
Description: (§1) In mirror image phage display selections, the selection rounds are carried out against a D-enantiomer as the target, which must be generated synthetically. Since this is not possible for the full-length tau protein (441 amino acids), the selections were carried out against the D-enantiomer of a 6-mer tau fragment (PHF-6), which can be found in tau repeats R2 and R3 and, according to various studies, forms the core of the neurofibrillary tangles (von Bergen, M., Assembly of τ protein into Alzheimer paired helical filaments depends on a local sequence motif (306VQIVYK311) forming β structure PNAS, 1999. 97(10): p. 5129-5134; Miller, M., Synergistic Interactions between Repeats in Tau Protein and Aβ Amyloids May Be Responsible for Accelerated Aggregation via Polymorphic States. 5172-5181, 2011. 50(23): p. 5172-5181). Since aggregated material is to serve as the target for the selection, and monomeric tau protein has important physiological functions and must not be inhibited in vivo, only fribriilary material was used for the selection. […]
The concentration of tau was 5 μM; the peptides were added at a ratio of 1:1 and 1:10 (tau:peptide). The fluorescence of 5 μM tau after 24 hours of incubation was set at 100%, and the values and standard deviations of the remaining incubations are indicated as percentages of this maximal value.

PHF-6 = PHF-6 (Homo sapiens, UniProt P10636); assay: ThT aggregation assay of PHF-6 (relative fibril content); conditions: 25 μM PHF-6, PHF-6:peptide 1:1 and 1:10, two hours of incubation
Description: as §1, with “5172-5181).” for “5172-5181). Since aggregated material is to serve as the target for the selection, and monomeric tau protein has important physiological functions and must not be inhibited in vivo, only fribriilary material was used for the selection.”
The concentration of PHF-6 was 25 μM; the peptides were measured at a ratio of 1:1 and 1:10 (PHF-6:peptide) and as controls individually in a 25 μM concentration (not shown). The fluorescence of 25 μM PHF-6 after two hours of incubation was set at 100%, and the values and standard deviations of the remaining incubations are indicated as percentages of this maximal value.

Sequence of tau fibrils (P10636 1-441 isoform P10636-8): as above

| Substance | Effect on existing tau fibrils (tau fibrils) | Mass Day 1 (tau full-length protein) | Particle size Day 1 (tau full-length protein) | Mass Day 8 (tau full-length protein) | Particle size Day 8 (tau full-length protein) | Effect on aggregation of tau in DLS (in words) (tau full-length protein) | Inhibition of fibrillization / aggregation of the full-length tau protein (full-length tau protein) | Inhibition of fibrillization / aggregation of the full-length tau protein (full-length tau protein; listed as peptide selected by Sievers) | Inhibition of aggregation / fibril formation of PHF-6 (PHF-6) |
| --- | --- | --- | --- | --- | --- | --- | --- | --- | --- |
| kntpqhrklrls ([dK][dN][dT][dP][dQ][dH][dR][dK][dL][dR][dL][dS]) [D-peptide from selections against D-PHF-6] | dissolve existing tau fibrils | ≧99% | 1-fold | ≧99% | 1-fold | – | – | – | – |
| aptilrlhslga | dissolve existing tau fibrils | ≧99% | 1-fold | ≧98% | 1-fold | – | – | – | – |
| ppyylxmqlstt ([dP][dP][dY][dY][dL][dR][dM][dQ][dL][dS][dT][dT]) [TD28ri, retro-inverso peptide of …] | convert tau fibrils into large amorphous aggregates | 100% | 55-fold | 100% | 44-fold | formation of very large aggregates | – | – | – |
| ttslqmrlyypp ([dT][dT][dS][dL][dQ][dM][dR][dL][dY][dY][dP][dP]) [TD28] | convert tau fibrils into large amorphous aggregates | 100% | 42-fold | 100% | 48-fold | formation of very large aggregates | – | – | – |
| TTSLQMRLYYPP (not fully specified (some residues)) [TL28, label not defined in the text] | – | ≧99% | – | 100% | – | – | – | – | – |
| tlkivw ([dT][dL][dK][dI][dV][dW]) [Sievers, reference compound] | – | 100% | – | ≧98% | – | showed no effect on the aggregation of the full-length tau protein | not the aggregation of the full-length tau protein | in most approaches showed no effect at all | inhibited the aggregation of PHF-6 to a similar degree as that of the peptides we developed |
